Data published in patent publication US10822379 (UNIVERSITY OF PITTSBURGH OF THE COMMONWEALTH SYSTEM OF …, dated 2020).

B1: Clone #1 (ab1) (Fab, V domains shown)
VH: EVQLVESGGGLVQPGGSLRLSCAASGFTVSSNYMSWVRQAPGKGLEWVSVIYSGGSTYYADSVKGRFTISRHNSKNTLYLQMNSLRAEDTAVYYCARGYGDYYFDYWGQGTLVTVSS
VL: DVVMTQSPATLSLSPGEKATLSCRASQSVSSYLAWYQQKPGQPPKLLIYWASTRESGVPDRFSGSGSGTDFTLTISSLQAEDVAVYYCQQYGSSPLTFGGGTKVEIKR
notes: also called #1 (Fab)
B2: Clone #2 (ab2) (Fab, V domains shown)
VH: QVQLQQSGPGLVKPSQTLSLTCAISGDSVSSNSAAWNWIRQSPSRGLEWLGRTYYRSKWYNDYAVSVKSRITINPDTSKNQFSLQLNSVTPEDTAVYYCAREQQQLVPHYYYYGMDVWGQGTTVTVSS
VL: DVVMTQSPSVSGSPGQSVTISCTGTTSDVGGYNYVSWYQQRPGKAPKLMIYEVSKRPSGVPDRFSGSKSGNTASLTVSGLQAEDEADYYCSSYTSSSTLFGTGTKLTVLG
notes: also called #2 (Fab)
B3: Clone #4 (ab4) (scFv)
scFv: EVQLVQSGGGLVQPGGSLRLSCAASGFTFSNYAMTWVRQAPGKGLEWVSTIAGSGDNTYYADSVKGRFTISRDNDKNTLYLQMNSLRADDTAVYYCARDRYYTMDVWGQGTLVTVSSGGGGSGGSGSSGGGSQSVVTQPPSASGSPGQSVTISCTGTSSDVGGYNHVSWYQQHPGKAPKLLIYEVSERPSGVPDRFSGSKSDNKASLTIIGLQTEDEADYYCQSYDSSLSGSLFGTGTKLTVLR
notes: also called #4 (scFv)
B4: Clone #5 (ab5) (other)
VH: KVQLQQWGAGLLKPSETLSLTCAVYGGSFSGYYWSWIRQPPGKGLEWIGEINHSGSTNYNPSLKSRVTISVDTSKNQFSLKLSSVTAADTAVYYCVRLPMIKKSFDIWGPGTLVTVSS
notes: also called #5 (VH domain)
B5: Clone #6 (ab6) (other)
VH: EVQLVESGGGVVQPGRSLRLSCAASGFTFSSYAMHWVRQAPGKGLEWIGNIYHDGSTFYNPSLKSLVTISRDDSTNTLYLQMNSLRAEDTAIYYCARVWLYGSGYMDVWGKGTLVTVSS
notes: also called #6 (VH domain)
B6: Clone #7 (ab7) (other)
VH: EVQLVESGGGLVQPGGSLRLSCAASAFDFYDYEMSWVRQAPGKALEWIGEIHHSGSTYYNPSLKGRFTISRDNSKNTLYLQMNSLRAEDTAVYYCAKDVSYHADVWGQGTTVTVSS
notes: also called #7 (VH domain)
B7: Clone #8 (ab8) (other)
VH: EVQLVESGGGLVQPGGSLRLSCAASGFTFDDYAMSWVRQAPGKGLEWIGRMYNNGRTSYNPSLKSLVTISRDNSKNTLYLQMNSLRAEDTATYYCARDNLGYRPSENLYGMDVWGQGTTVTVSS
notes: also called #8 (VH domain)
B8: Clone #9 (ab9) (other)
VH: EVQLVESGGGLVQPGGSLRLSCKGSGFTLSDYYIGWVRQAPGKGLEWIGSMYHSGRTYINPSLKSRVTISRDNSKNTLYLQMNSLRAEDTAVYYCARGGITGTTPIDYWGQGTLVTVSS
notes: also called #9 (VH domain)

These binders were tested against RBD of the S protein of SARS-CoV-2 (SARS-CoV-2, UniProt P0DTC2 330-532) (assay: ELISA on SARS-CoV-2 RBD).
In the case of B1, the EC50 is reported as 0.02 µM.
In the case of B2, the EC50 is reported as 0.002 µM.
Work on B3 yielded an EC50 of 0.01 µM.
B4 gave an EC50 of 0.02 µM.
For B5, the EC50 was 0.006 µM.
In the case of B6, the EC50 is reported as 0.004 µM.
B7 gave an EC50 of 0.025 µM.
Work on B8 yielded an EC50 of 0.06 µM.
